According to the supplement of paper PMC7125110:
± gives the standard error. Variants at the floor of the assay were thinned out.

B1: glmS ribozyme (parent)
chain: AUAAAAGCGCCAGAACUACAGAAAUGUAGUUGACGAGGAGGAGGUUUAUCGAAUUUUCGGCGGAUGCCUCCAAA

Tests used:
Details in all cases: with glucosamine-6-phosphate
glucosamine-6-phosphate [1] = variants of: B1; assay: self-cleavage kobs at 160 uM GlcN6P; higher = faster cleavage; RNA array
Procedure, shortened: (§1)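 Barcoded ribozyme variants were transcribed in situ on sequenced MiSeq chips by E. coli RNA polymerase. At 37 °C, a hybridised Cy3 probe tracked them while glucosamine-6-phosphate (40 μM to 10 mM) in HEPES/KCl/Mg(OAc)2 buffer flowed in and tiles were imaged over ~14 h. Per-tile medians of signals normalised to baseline and to non-cleaving reference variants were fit to one- or two-exponential decays, giving kobs. kcat and KM came from weighted Michaelis–Menten fits across concentrations.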

glucosamine-6-phosphate [2] = variants of: B1; assay: self-cleavage kobs at 640 uM GlcN6P; higher = faster cleavage; RNA array
Procedure, shortened: as §1

glucosamine-6-phosphate [3] = variants of: B1; assay: self-cleavage kobs at 2500 uM GlcN6P; higher = faster cleavage; RNA array
Procedure, shortened: as §1

glucosamine-6-phosphate [4] = variants of: B1; assay: self-cleavage kobs at 10000 uM GlcN6P; higher = faster cleavage; RNA array
Procedure, shortened: as §1

Variant | self-cleavage kobs at 160 uM GlcN6P (glucosamine-6-phosphate [1]) | self-cleavage kobs at 640 uM GlcN6P (glucosamine-6-phosphate [2]) | self-cleavage kobs at 2500 uM GlcN6P (glucosamine-6-phosphate [3]) | self-cleavage kobs at 10000 uM GlcN6P (glucosamine-6-phosphate [4])
U30A G51A | < 1e-05 s⁻¹ |  |  | 
G13U G44U C68U | < 1e-05 s⁻¹ | < 1e-05 s⁻¹ | < 1e-05 s⁻¹ | 
A12U A42U G44U C67G | 3.69e-05 ± 1.5e-05 s⁻¹ | 0.000122 ± 3.2e-05 s⁻¹ | 0.000326 ± 9.4e-05 s⁻¹ | 
G13C U46C | < 1e-05 s⁻¹ | < 1e-05 s⁻¹ |  | 
U31A A42U U45A G62U | < 1e-05 s⁻¹ |  | < 1e-05 s⁻¹ | 
U30C C58U C67G C71A | 0.000188 ± 5.3e-05 s⁻¹ | 0.000584 ± 0.00013 s⁻¹ | 0.000197 ± 4.3e-05 s⁻¹ | 
U30G G32U A36U G60A U69C C71A | < 1e-05 s⁻¹ |  |  | 
C16A A52U | < 1e-05 s⁻¹ |  |  | 3.13e-05 ± 8.8e-06 s⁻¹
U31C G62A | < 1e-05 s⁻¹ | < 1e-05 s⁻¹ | < 1e-05 s⁻¹ | < 1e-05 s⁻¹
A12G G59C G63C C67A | < 1e-05 s⁻¹ | < 1e-05 s⁻¹ | < 1e-05 s⁻¹ | 
G13U C50G G59A | 0.0002 ± 7.6e-05 s⁻¹ |  |  | 
G29A A42G U45A | 6.61e-05 ± 3e-05 s⁻¹ | 0.00154 ± 0.00038 s⁻¹ | 0.00402 ± 0.0015 s⁻¹ | 
A12U C50G C70G | 0.000311 ± 7.3e-05 s⁻¹ | 0.000429 ± 8.2e-05 s⁻¹ | 0.000205 ± 7.3e-05 s⁻¹ | 0.000273 ± 6e-05 s⁻¹
A14U G35U A39G C50U | < 1e-05 s⁻¹ |  |  | 
G32U C50G | 5.71e-05 ± 2e-05 s⁻¹ |  |  | 
G13C C58U G59U | < 1e-05 s⁻¹ |  |  | 
G13C A53U G59A C71U | < 1e-05 s⁻¹ |  | < 1e-05 s⁻¹ | 
A33G A39C | < 1e-05 s⁻¹ | < 1e-05 s⁻¹ | < 1e-05 s⁻¹ | < 1e-05 s⁻¹
G13A G51A C70A | 6.55e-05 ± 2.4e-05 s⁻¹ |  |  | 
G32C A42G A64U | < 1e-05 s⁻¹ | < 1e-05 s⁻¹ | < 1e-05 s⁻¹ | 
A12G U56C G60A | < 1e-05 s⁻¹ | < 1e-05 s⁻¹ | < 1e-05 s⁻¹ | 
A15G U47C G63A | < 1e-05 s⁻¹ | < 1e-05 s⁻¹ | < 1e-05 s⁻¹ | 
A33C A64U C70A | < 1e-05 s⁻¹ |  | < 1e-05 s⁻¹ | 
U17G | 0.00191 ± 0.00076 s⁻¹ | 0.00535 ± 0.0016 s⁻¹ |  | 
A12U U30A U45A A53U G62C | < 1e-05 s⁻¹ |  | < 1e-05 s⁻¹ | 
C16U A36U U55C U56C C58G | < 1e-05 s⁻¹ |  | < 1e-05 s⁻¹ | 

Variant | self-cleavage kobs at 160 uM GlcN6P (glucosamine-6-phosphate [1]) | self-cleavage kobs at 640 uM GlcN6P (glucosamine-6-phosphate [2]) | self-cleavage kobs at 2500 uM GlcN6P (glucosamine-6-phosphate [3]) | self-cleavage kobs at 10000 uM GlcN6P (glucosamine-6-phosphate [4])
A33C G35C U45G A64C | < 1e-05 s⁻¹ |  | < 1e-05 s⁻¹ | 
G29C U69G | 3.65e-05 ± 9.9e-06 s⁻¹ | 9.83e-05 ± 1.7e-05 s⁻¹ | 4.13e-05 ± 1.1e-05 s⁻¹ | 
G29C U69A | 4.08e-05 ± 1.4e-05 s⁻¹ | 8.01e-05 ± 1.7e-05 s⁻¹ | 2.32e-05 ± 1e-05 s⁻¹ | 
G13C A33C G41U U56C | < 1e-05 s⁻¹ |  | < 1e-05 s⁻¹ | 
G13A A33G A36U G40U U55A | < 1e-05 s⁻¹ | < 1e-05 s⁻¹ | < 1e-05 s⁻¹ | 
U30C G35C | < 1e-05 s⁻¹ | < 1e-05 s⁻¹ | < 1e-05 s⁻¹ | < 1e-05 s⁻¹
C16G G37A A48U U49C | < 1e-05 s⁻¹ |  |  | 
G13U A33U U57C | < 1e-05 s⁻¹ | < 1e-05 s⁻¹ |  | 
C16U C58A | 0.000528 ± 0.00025 s⁻¹ | 0.000131 ± 2.7e-05 s⁻¹ | 0.000305 ± 6.1e-05 s⁻¹ | 0.00094 ± 0.00015 s⁻¹
G32A G37C | < 1e-05 s⁻¹ | < 1e-05 s⁻¹ | < 1e-05 s⁻¹ | < 1e-05 s⁻¹
U30G G35U G44U U46G U65C | < 1e-05 s⁻¹ | < 1e-05 s⁻¹ | < 1e-05 s⁻¹ | 
G13U G38U U65G | < 1e-05 s⁻¹ |  |  | 
G32C G60U | < 1e-05 s⁻¹ | < 1e-05 s⁻¹ | < 1e-05 s⁻¹ | < 1e-05 s⁻¹
A12U A14C G40C A42U U45G | < 1e-05 s⁻¹ | < 1e-05 s⁻¹ |  | 
U30G G35C A36C A52U | < 1e-05 s⁻¹ |  | < 1e-05 s⁻¹ | 
A15U C50A A64U C71U | < 1e-05 s⁻¹ |  |  | 
A15C C34A G44U | < 1e-05 s⁻¹ | < 1e-05 s⁻¹ | < 1e-05 s⁻¹ | 
G32A A52U G63C | < 1e-05 s⁻¹ | < 1e-05 s⁻¹ | < 1e-05 s⁻¹ | 
U31G G35A C67A | < 1e-05 s⁻¹ | < 1e-05 s⁻¹ |  | 
A14C A39G C58G G60U G62U | < 1e-05 s⁻¹ |  | < 1e-05 s⁻¹ | 
G13A G41U U49A G51C | < 1e-05 s⁻¹ |  |  | 
A14U C16A A33C | < 1e-05 s⁻¹ | < 1e-05 s⁻¹ |  | 
A14C A53U C67G | 3.21e-05 ± 1.4e-05 s⁻¹ | 0.000135 ± 2.7e-05 s⁻¹ | 0.000238 ± 4.6e-05 s⁻¹ | 
U30C G41C U49G G51U C58A | < 1e-05 s⁻¹ |  |  | 
A33C U69C | < 1e-05 s⁻¹ | < 1e-05 s⁻¹ |  | 
A33C U69G | < 1e-05 s⁻¹ |  | < 1e-05 s⁻¹ | < 1e-05 s⁻¹
